This is an account of results in patent publication US20260167721A1 (ABLEXIS, published 2026).

The target of test [1] is T1, CD33 on KILR-HL60 cells (UniProt P20138 18-364, limits assumed).
T1 construct: whole, on cells; Target of the gemtuzumab arm; also called CD33 expressing cells
The test is described as follows: flow cytometry on KILR-HL60 (CD33 expressing) cells, antibody at 10 ug/ml. For orientation: In flow cytometry, cells or beads pass a laser one at a time.

For test [2], the target named is T2, CD3 on Jurkat wild-type cells (UniProt P07766 23-207; P04234 22-171; P09693 23-182).
T2 construct: whole, on cells; also called Jurkat WT
T2 sequence (P07766 23-207, chain 1 of 3): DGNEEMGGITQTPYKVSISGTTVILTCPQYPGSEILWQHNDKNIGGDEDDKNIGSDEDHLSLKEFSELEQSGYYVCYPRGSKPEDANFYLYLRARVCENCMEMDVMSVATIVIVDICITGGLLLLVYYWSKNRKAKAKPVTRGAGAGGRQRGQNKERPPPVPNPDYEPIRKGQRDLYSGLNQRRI
T2 sequence (P04234 22-171, chain 2 of 3): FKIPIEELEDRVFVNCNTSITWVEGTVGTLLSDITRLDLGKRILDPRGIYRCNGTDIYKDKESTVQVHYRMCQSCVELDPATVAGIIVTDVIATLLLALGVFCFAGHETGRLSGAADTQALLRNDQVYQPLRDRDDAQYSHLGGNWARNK
T2 sequence (P09693 23-182, chain 3 of 3): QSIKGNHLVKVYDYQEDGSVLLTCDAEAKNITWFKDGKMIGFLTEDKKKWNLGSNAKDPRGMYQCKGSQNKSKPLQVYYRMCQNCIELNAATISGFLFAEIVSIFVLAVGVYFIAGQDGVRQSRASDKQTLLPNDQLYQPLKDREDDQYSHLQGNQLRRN
The test is described as follows: flow cytometry on Jurkat WT cells, antibody at 10 ug/ml.

For test [3], the target named is T2, CD3 on Jurkat wild-type cells. The experiment in a line: flow cytometry on Jurkat WT cells, antibody at 1 ug/ml.
Test [4] addresses T1, CD33 on KILR-HL60 cells. The test is described as follows: flow cytometry on KILR-HL60 (CD33 expressing) cells, antibody at 1 ug/ml.

T1 sequence (P20138 18-364 limits assumed): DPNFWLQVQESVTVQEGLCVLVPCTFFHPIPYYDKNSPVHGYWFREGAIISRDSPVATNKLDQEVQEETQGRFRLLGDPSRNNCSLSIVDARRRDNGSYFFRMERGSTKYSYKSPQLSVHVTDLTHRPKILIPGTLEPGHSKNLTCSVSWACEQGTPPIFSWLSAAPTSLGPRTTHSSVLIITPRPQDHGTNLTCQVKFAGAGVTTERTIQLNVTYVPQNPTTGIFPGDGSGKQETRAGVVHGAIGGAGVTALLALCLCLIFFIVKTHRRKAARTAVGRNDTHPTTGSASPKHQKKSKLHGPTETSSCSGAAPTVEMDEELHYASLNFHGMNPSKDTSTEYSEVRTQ

B1: CD3 × CD33-BspAb61 (bispecific antibody)
scFv-Fc: NFMLTQPHSVSESPGKTVTISCTRSSGSIASNYVQWYQQRPGSSPTTVIYEDNQRPSGVPDRFSGSIDSSSNSASLTISGLKTEDEADYYCQSFDNSNRVFGCGTKLTVLGGGGSGGGGSGGGGSGGGGSEVQLVESGGGLVKPGGSLRLSCAASGFTFSRYSMNWVRQAPGKCLKWVSSISSSGSYKYYADSVKGRFTISRDNAKNSLYLQMNSLRAEDTAVYYCAREPPTLGMDYWGQGTLVTVSSGGGGSDKTHTCPPCPAPEFEGGPSVFLFPPKPKDTLMISRTPEVTCVVVDVSHEDPEVKFNWYVDGVEVHNAKTKPREEQYNSTYRVVSVLTVLHQDWLNGKEYKCKVSNKALPASIEKTISKAKGQPREPQVYTLPPCREEMTKNQVSLWCLVKGFYPSDIAVEWESNGQPENNYKTTPPVLDSDGSFFLYSKLTVDKSRWQQGNVFSCSVMHEALHNHYTQKSLSLSPGK
heavy: EVQLVQSGAEVKKPGSSVKVSCKASGYTITDSNIHWVRQAPGQSLEWIGYIYPYNGGTDYNQKFKNRATLTVDNPTNTAYMELSSLRSEDTAFYYCVNGNPWLAYWGQGTLVTVSSASTKGPSVFPLAPSSKSTSGGTAALGCLVKDYFPEPVTVSWNSGALTSGVHTFPAVLQSSGLYSLSSVVTVPSSSLGTQTYICNVNHKPSNTKVDKRVEPKSCDKTHTCPPCPAPEFEGGPSVFLFPPKPKDTLMISRTPEVTCVVVDVSHEDPEVKFNWYVDGVEVHNAKTKPREEQYNSTYRVVSVLTVLHQDWLNGKEYKCKVSNKALPASIEKTISKAKGQPREPQVCTLPPSREEMTKNQVSLSCAVKGFYPSDIAVEWESNGQPENNYKTTPPVLDSDGSFFLVSKLTVDKSRWQQGNVFSCSVMHEALHNRFTQKSLSLSPGK
light: DIQLTQSPSTLSASVGDRVTITCRASESLDNYGIRFLTWFQQKPGKAPKLLMYAASNQGSGVPSRFSGSGSGTEFTLTISSLQPDDFATYYCQQTKEVPWSFGQGTKVEVKRTVAAPSVFIFPPSDEQLKSGTASVVCLLNNFYPREAKVQWKVDNALQSGNSQESVTEQDSKDSTYSLSSTLTLSKADYEKHKVYACEVTHQGLSSPVTKSFNRGEC
Turning to B1, the flow cytometry signal with CD33 on KILR-HL60 cells [1] is 538000; in test [2], 84800; in test [3] it was 95600; with CD33 on KILR-HL60 cells [4], 621000.

B2: Control Humanized anti-CD3 (high affinity) scFv-Fc knob/TM x gemtuzumab (bispecific antibody)
scFv: EVQLVESGGGLVQPGGSLRLSCAASGFTFSTYAMNWVRQAPGKGLEWVGRIRSKYNNYATYYADSVKGRFTISRDDSKNTLYLQMNSLRAEDTAVYYCVRHGNFGDSYVSWFAYWGQGTLVTVSSGKPGSGKPGSGKPGSGKPGSQAVVTQEPSLTVSPGGTVTLTCGSSTGAVTTSNYANWVQQKPGKSPRGLIGGTNKRAPGVPARFSGSLLGGKAALTISGAQPEDEADYYCALWYSNHWVFGGGTKLTVLGGGGSDKTHTCPPCPAPEFEGGPSVFLFPPKPKDTLMISRTPEVTCVVVDVSHEDPEVKFNWYVDGVEVHNAKTKPREEQYNSTYRVVSVLTVLHQDWLNGKEYKCKVSNKALPASIEKTISKAKGQPREPQVYTLPPCREEMTKNQVSLWCLVKGFYPSDIAVEWESNGQPENNYKTTPPVLDSDGSFFLYSKLTVDKSRWQQGNVFSCSVMHEALHNHYTQKSLSLSPGK
heavy: EVQLVQSGAEVKKPGSSVKVSCKASGYTITDSNIHWVRQAPGQSLEWIGYIYPYNGGTDYNQKFKNRATLTVDNPTNTAYMELSSLRSEDTAFYYCVNGNPWLAYWGQGTLVTVSSASTKGPSVFPLAPSSKSTSGGTAALGCLVKDYFPEPVTVSWNSGALTSGVHTFPAVLQSSGLYSLSSVVTVPSSSLGTQTYICNVNHKPSNTKVDKRVEPKSCDKTHTCPPCPAPEFEGGPSVFLFPPKPKDTLMISRTPEVTCVVVDVSHEDPEVKFNWYVDGVEVHNAKTKPREEQYNSTYRVVSVLTVLHQDWLNGKEYKCKVSNKALPASIEKTISKAKGQPREPQVCTLPPSREEMTKNQVSLSCAVKGFYPSDIAVEWESNGQPENNYKTTPPVLDSDGSFFLVSKLTVDKSRWQQGNVFSCSVMHEALHNRFTQKSLSLSPGK
light: DIQLTQSPSTLSASVGDRVTITCRASESLDNYGIRFLTWFQQKPGKAPKLLMYAASNQGSGVPSRFSGSGSGTEFTLTISSLQPDDFATYYCQQTKEVPWSFGQGTKVEVKRTVAAPSVFIFPPSDEQLKSGTASVVCLLNNFYPREAKVQWKVDNALQSGNSQESVTEQDSKDSTYSLSSTLTLSKADYEKHKVYACEVTHQGLSSPVTKSFNRGEC
Take B2: the flow cytometry signal with CD33 on KILR-HL60 cells [1] was found to be 648000; in test [2], 38400; in test [3], 37900; in the test with CD33 on KILR-HL60 cells [4], 544000.

B3: CD3 × CD33-BspAb62 (bispecific antibody)
scFv-Fc: NFMLTQPHSVSESPGKTVTISCTRSSGSIASNYVQWYQQRPGSSPTTVIYEDNQRPSGVPDRFSGSIDSSSNSASLTISGLKTEDEADYYCQSYDSSNHVFGCGTKLTVLGGGGSGGGGSGGGGSGGGGSEVQLVESGGGLVQPGGSLRLSCAASGFTFSRYSMNWVRQAPGKCLEWVSYISSSSSSIYYADSVKGRFTISRDNAKNSLYLQMNSLRDEDTAVYYCARDRRATLDYWGQGTLVTVSSGGGGSDKTHTCPPCPAPEFEGGPSVFLFPPKPKDTLMISRTPEVTCVVVDVSHEDPEVKFNWYVDGVEVHNAKTKPREEQYNSTYRVVSVLTVLHQDWLNGKEYKCKVSNKALPASIEKTISKAKGQPREPQVYTLPPCREEMTKNQVSLWCLVKGFYPSDIAVEWESNGQPENNYKTTPPVLDSDGSFFLYSKLTVDKSRWQQGNVFSCSVMHEALHNHYTQKSLSLSPGK
heavy: EVQLVQSGAEVKKPGSSVKVSCKASGYTITDSNIHWVRQAPGQSLEWIGYIYPYNGGTDYNQKFKNRATLTVDNPTNTAYMELSSLRSEDTAFYYCVNGNPWLAYWGQGTLVTVSSASTKGPSVFPLAPSSKSTSGGTAALGCLVKDYFPEPVTVSWNSGALTSGVHTFPAVLQSSGLYSLSSVVTVPSSSLGTQTYICNVNHKPSNTKVDKRVEPKSCDKTHTCPPCPAPEFEGGPSVFLFPPKPKDTLMISRTPEVTCVVVDVSHEDPEVKFNWYVDGVEVHNAKTKPREEQYNSTYRVVSVLTVLHQDWLNGKEYKCKVSNKALPASIEKTISKAKGQPREPQVCTLPPSREEMTKNQVSLSCAVKGFYPSDIAVEWESNGQPENNYKTTPPVLDSDGSFFLVSKLTVDKSRWQQGNVFSCSVMHEALHNRFTQKSLSLSPGK
light: DIQLTQSPSTLSASVGDRVTITCRASESLDNYGIRFLTWFQQKPGKAPKLLMYAASNQGSGVPSRFSGSGSGTEFTLTISSLQPDDFATYYCQQTKEVPWSFGQGTKVEVKRTVAAPSVFIFPPSDEQLKSGTASVVCLLNNFYPREAKVQWKVDNALQSGNSQESVTEQDSKDSTYSLSSTLTLSKADYEKHKVYACEVTHQGLSSPVTKSFNRGEC
For the molecule B3, the flow cytometry signal in the test with CD33 on KILR-HL60 cells [1] stood at 595000; in test [2], 59000; in test [3] it was 62500; in the test with CD33 on KILR-HL60 cells [4] it was 295000.

B4: CD3 × CD33-BspAb66 (bispecific antibody, human IgG1, kappa)
scFv: EVQLVESGGGLVQPGRSLRLSCAASGFTFDDYAMHWVRQAPGKGLEWVSGISWNSGSIGYADSVKGRFTISRDNAKNSLYLQMNSLRAEDTALYYCAKDSRGYGDYRLGGAYWGQGTLVTVSSGGGGSGGGGSGGGGSGGGGSEIVMTQSPATLSVSPGERATLSCRASQSVSSNLAWYQQKPGQAPRLLIYGASTRATGIPARFSGSGSGTEFTLTISSLQSEDFAVYYCQQYNNWPWTFGQGTKVEIKTSGPGGPDKTHTCPPCPAPEFEGGPSVFLFPPKPKDTLMISRTPEVTCVVVDVSHEDPEVKFNWYVDGVEVHNAKTKPREEQYNSTYRVVSVLTVLHQDWLNGKEYKCKVSNKALPASIEKTISKAKGQPREPQVYTLPPCREEMTKNQVSLWCLVKGFYPSDIAVEWESNGQPENNYKTTPPVLDSDGSFFLYSKLTVDKSRWQQGNVFSCSVMHEALHNHYTQKSLSLSPGK
heavy: EVQLVQSGAEVKKPGSSVKVSCKASGYTITDSNIHWVRQAPGQSLEWIGYIYPYNGGTDYNQKFKNRATLTVDNPTNTAYMELSSLRSEDTAFYYCVNGNPWLAYWGQGTLVTVSSASTKGPSVFPLAPSSKSTSGGTAALGCLVKDYFPEPVTVSWNSGALTSGVHTFPAVLQSSGLYSLSSVVTVPSSSLGTQTYICNVNHKPSNTKVDKRVEPKSCDKTHTCPPCPAPEFEGGPSVFLFPPKPKDTLMISRTPEVTCVVVDVSHEDPEVKFNWYVDGVEVHNAKTKPREEQYNSTYRVVSVLTVLHQDWLNGKEYKCKVSNKALPASIEKTISKAKGQPREPQVCTLPPSREEMTKNQVSLSCAVKGFYPSDIAVEWESNGQPENNYKTTPPVLDSDGSFFLVSKLTVDKSRWQQGNVFSCSVMHEALHNRFTQKSLSLSPGK
light: DIQLTQSPSTLSASVGDRVTITCRASESLDNYGIRFLTWFQQKPGKAPKLLMYAASNQGSGVPSRFSGSGSGTEFTLTISSLQPDDFATYYCQQTKEVPWSFGQGTKVEVKRTVAAPSVFIFPPSDEQLKSGTASVVCLLNNFYPREAKVQWKVDNALQSGNSQESVTEQDSKDSTYSLSSTLTLSKADYEKHKVYACEVTHQGLSSPVTKSFNRGEC
notes: also called CD3δε-specific control antibody scFv-Fc knob/TM x gemtuzumab
For the molecule B4, the flow cytometry signal with CD33 on KILR-HL60 cells [1] turned out to be 499000; in test [2] it was 23100; in test [3], 6660; with CD33 on KILR-HL60 cells [4], 569000.
